Data on two molecules can be found in US6670136 (TRUSTEES OF COLUMBIA UNIVERSITY IN THE CITY OF NEW YORK, dated 2003).

Experiment [1] deals with T1, RAGE on bovine aortic endothelial cells (BAEC RAGE) (bovine, UniProt Q28173 23-416).
T1 construct: whole, on cells; The target is endogenous RAGE on confluent BAEC monolayers; also called BAECs; endothelial (EC) RAGE
T1 sequence (looked up): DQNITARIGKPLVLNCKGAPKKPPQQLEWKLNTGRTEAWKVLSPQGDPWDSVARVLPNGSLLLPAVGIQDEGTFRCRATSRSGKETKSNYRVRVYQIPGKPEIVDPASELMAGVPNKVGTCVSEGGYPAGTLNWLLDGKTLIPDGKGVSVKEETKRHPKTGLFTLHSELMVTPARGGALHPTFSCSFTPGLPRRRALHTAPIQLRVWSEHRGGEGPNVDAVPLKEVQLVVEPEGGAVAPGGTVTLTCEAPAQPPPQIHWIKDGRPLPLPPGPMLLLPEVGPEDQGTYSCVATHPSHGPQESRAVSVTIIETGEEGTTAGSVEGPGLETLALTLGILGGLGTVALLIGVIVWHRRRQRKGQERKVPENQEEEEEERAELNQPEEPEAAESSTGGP
In words: radioligand binding: 125I-EN-RAGE on confluent bovine aortic endothelial cells. The method, then: (§1) Where indicated, radiolabelled EN-RAGE (100 nM) was incubated with the indicated amount of excess sRAGE two hours prior to binding assay, or wells were preincubated for two hours with the indicated concentration of rabbit nonimmune IgG, or polyclonal monospecific rabbit anti-EN-RAGE IgG or anti-RAGE: IgG prior to binding assay and results reported as % maximal specific binding ±SD of the mean. These experiments were performed at least five times with analogous results.
(§2) Radioligand binding assays were performed in 96-well dishes to which had been adsorbed either purified human RAGE (5 μg/well) or bovine aortic endothelial cells. In the former case, after adsorption of human soluble RAGE to the plastic dish in carbonate/bicarbonate buffer (pH 9.3) overnight, wells were then washed with PBS containing Tween 20 (0.05%). Unoccupied binding sites on the plastic wells were blocked by incubation with PBS containing calcium/magnesium and bovine serum albumin (1%) for two hours at 37° C. After aspiration of the wells, a radioligand binding assay was performed in the presence of the indicated concentration of radiolabelled EN-RAGE ± an 50-fold molar excess of unlabelled EN-RAGE in PBS containing calcium/magnesium and BSA, 0.2%, for 3 hrs at 37° C. […] Solution was then aspirated from the wells and counted in a gamma counter (LKB, Gaithersburg, Md.). […]

Experiment [2] concerns the target T1, RAGE on bovine aortic endothelial cells …. Description: binding to endothelial cell RAGE in culture wells. The method, then:
as §1, §2

In experiment [3] the target is cellular RAGE on human cells (HUVEC, Molt-4, PBMC, Jurkat) (human, UniProt Q15109 23-404). In words: cell-based or functional assay.
cellular RAGE on human cells (HUVEC, Molt-4, PBMC, Jurkat), sequence (Q15109 23-404): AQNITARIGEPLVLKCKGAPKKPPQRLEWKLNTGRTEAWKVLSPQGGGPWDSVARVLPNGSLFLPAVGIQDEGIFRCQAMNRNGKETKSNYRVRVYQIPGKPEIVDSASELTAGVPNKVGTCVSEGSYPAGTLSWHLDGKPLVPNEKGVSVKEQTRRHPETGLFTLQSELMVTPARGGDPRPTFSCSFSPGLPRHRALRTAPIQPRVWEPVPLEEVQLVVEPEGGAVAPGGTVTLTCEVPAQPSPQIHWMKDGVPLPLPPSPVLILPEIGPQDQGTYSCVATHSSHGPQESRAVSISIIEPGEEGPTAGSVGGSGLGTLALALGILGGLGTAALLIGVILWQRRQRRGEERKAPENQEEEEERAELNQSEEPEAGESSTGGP
Experiment [4] concerns the target T2, human soluble RAGE (sRAGE), prepared from a baculovirus expression system (human, UniProt Q15109 23-342).
T2 construct: extracellular domain; Murine sRAGE was used only in the in vivo studies; also called purified RAGE; immobilized RAGE
In words: radioligand binding: 125I-EN-RAGE on human sRAGE adsorbed to plastic wells, with or without 50-fold unlabelled EN-RAGE. The method, then: as §1, §2

Experiment [5] has as its target T2, human soluble RAGE (sRAGE), prepared …. Description: binding to immobilized RAGE in culture wells. The method, then: as §1, with “(Panel C–D) EN-RAGE binds purified RAGE (C) and BAECs (D): In C, human soluble RAGE was immobilized onto the wells of plastic dishes and in D, confluent BAECs were cultured onto tissue culture-treated wells. […] Where” for “Where”
Radioligand binding assays were performed in 96-well dishes to which had been adsorbed either purified human RAGE (5 μg/well) or bovine aortic endothelial cells. In the former case, after adsorption of human soluble RAGE to the plastic dish in carbonate/bicarbonate buffer (pH 9.3) overnight, wells were then washed with PBS containing Tween 20 (0.05%). Unoccupied binding sites on the plastic wells were blocked by incubation with PBS containing calcium/magnesium and bovine serum albumin (1%) for two hours at 37° C. […] Solution was then aspirated from the wells and counted in a gamma counter (LKB, Gaithersburg, Md.).

For experiment [6], the target named is T3, RAGE on macrophage-like BV2 cells (macrophage (MP) RAGE) (UniProt Q62151 23-402, limits assumed).
T3 construct: whole, on cells; also called BV-2 macrophages
T3 sequence (Q62151 23-402 limits assumed): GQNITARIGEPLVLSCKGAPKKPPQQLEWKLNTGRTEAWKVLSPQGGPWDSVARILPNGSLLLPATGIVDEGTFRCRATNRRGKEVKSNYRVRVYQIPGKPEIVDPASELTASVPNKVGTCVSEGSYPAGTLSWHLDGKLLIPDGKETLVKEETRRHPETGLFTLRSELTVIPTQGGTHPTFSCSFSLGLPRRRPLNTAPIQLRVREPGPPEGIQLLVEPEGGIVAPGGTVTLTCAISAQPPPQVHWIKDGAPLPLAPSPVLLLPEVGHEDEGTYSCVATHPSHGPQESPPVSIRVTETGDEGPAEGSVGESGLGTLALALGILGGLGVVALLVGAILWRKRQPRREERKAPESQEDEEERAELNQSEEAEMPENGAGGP
Description: binding to macrophage RAGE in culture wells.

T2 sequence (Q15109 23-342): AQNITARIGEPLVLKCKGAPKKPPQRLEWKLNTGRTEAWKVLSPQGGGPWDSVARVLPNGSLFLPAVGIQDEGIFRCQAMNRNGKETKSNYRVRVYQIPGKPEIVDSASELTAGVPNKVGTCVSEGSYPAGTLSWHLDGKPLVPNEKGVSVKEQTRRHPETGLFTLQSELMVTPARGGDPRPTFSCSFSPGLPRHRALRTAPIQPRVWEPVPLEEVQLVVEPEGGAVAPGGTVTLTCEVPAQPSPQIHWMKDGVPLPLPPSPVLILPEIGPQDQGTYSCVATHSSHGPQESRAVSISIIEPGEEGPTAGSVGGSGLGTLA

B1: EN-RAGE (Extracellular Novel RAGE binding protein), recombinant bovine, expressed in Sf9 cells (ligand)
chain: TKLEDHLEGIINIFHQYSVRVGHFDTLNKRELKQLITKELPKTLQNTKDQPTIDKIFQDLDADKDGAVSFEEFVVLVSRVLKTAHIDIHK
notes: Recombinant protein made from a bovine lung cDNA in baculovirus/Sf9; In the cell assays it was unlabelled; also called radiolabelled EN-RAGE
Turning to B1, the Kd (in general, the free concentration of one partner at which half of the binding sites on the other are occupied at equilibrium, for simple one-to-one binding) in experiment [1] was about 90.3 nM; in experiment [2] it was about 75 nM; in experiment [4], about 91 nM; in experiment [5], about 75 nM; in experiment [6], about 75 nM. For the same molecule, the “adhesion of Molt-4 cells to cultured ECs” value in experiment [3] was determined as 7 fold. The “expression of cell-surface VCAM-1 on cultured ECs” value in experiment [3] is 4.3 fold. Moreover, in experiment [3], the “nuclear NF-kB in HUVEC (EMSA, densitometry)” value is about 5 fold.

B2: purified S100B from human brain (Calbiochem-Novabiochem) (ligand, UniProt P04271 2-92, looked up)
chain: SELEKAMVALIDVFHQYSGREGDKHKLKKSELKELINNELSHFLEEIKEQEVVDKVMETLDNDGDGECDFQEFMAFVAMVTTACHEFFEHE
As for B2, the “nuclear translocation of NF-kB in HUVEC (EMSA)” value in experiment [3] is about 13.9 fold.
